Experimental data: US20250326823A1

Columns and labels:
Test in all cases: cell-based or functional assay
[1] = target: SARS-CoV-2 spike (S) protein, BA.2.12.1 variant (SARS-CoV-2) (UniProt P0DTC2)
[2] = target: SARS-CoV-2 spike (S) protein, variant XBB (SARS-CoV-2) (UniProt P0DTC2)
[3] = target: SARS-CoV-2 spike (S) protein, BA.4.6 variant (SARS-CoV-2) (UniProt P0DTC2)
[4] = target: SARS-CoV-2 spike (S) protein, BA.1 variant (SARS-CoV-2) (UniProt P0DTC2)
[5] = target: SARS-CoV-2 spike (S) protein, variant BQ.1.1 (SARS-CoV-2) (UniProt P0DTC2)
[6] = target: SARS-CoV-2 spike (S) protein, BA.2.75.2 variant (SARS-CoV-2) (UniProt P0DTC2)
[7] = target: SARS-CoV-2 spike (S) protein, variant BJ.1 (SARS-CoV-2) (UniProt P0DTC2)
[8] = target: SARS-CoV-2 spike (S) protein, BA.4/5 variant (SARS-CoV-2) (UniProt P0DTC2)
[9] = target: SARS-CoV-2 spike (S) protein, BA.2.75 variant (SARS-CoV-2) (UniProt P0DTC2)
[10] = target: SARS-CoV-2 spike (S) protein, variant CH.1.1 (SARS-CoV-2) (UniProt P0DTC2)
[11] = target: SARS-CoV-2 spike (S) protein, variant BA.2.86 (SARS-CoV-2) (UniProt P0DTC2)
[12] = target: SARS-CoV-2 spike (S) protein, variant XEC (SARS-CoV-2) (UniProt P0DTC2)
[13] = target: SARS-CoV-2 spike (S) protein, variant KP.2 (SARS-CoV-2) (UniProt P0DTC2)
[14] = target: SARS-CoV-2 spike (S) protein, variant KP.2.3 (SARS-CoV-2) (UniProt P0DTC2)
[15] = target: SARS-CoV-2 spike (S) protein, variant KP.3.1.1 (SARS-CoV-2) (UniProt P0DTC2)
[16] = target: SARS-CoV-2 spike (S) protein, variant KP.3 (SARS-CoV-2) (UniProt P0DTC2)
[17] = target: SARS-CoV-2 spike (S) protein, variant JN.1 (SARS-CoV-2) (UniProt P0DTC2)
[18] = target: SARS-CoV-2 spike (S) protein, variant EG.5.1 (SARS-CoV-2) (UniProt P0DTC2)
[19] = target: SARS-CoV-2 spike (S) protein, variant LB.1 (SARS-CoV-2) (UniProt P0DTC2)
[20] = target: SARS-CoV-2 spike (S) protein, variant EG.5.1 (SARS-CoV-2)
[21] = target: SARS-CoV-2 spike (S) protein, variant XEC (SARS-CoV-2)
[22] = target: SARS-CoV-2 spike (S) protein, variant KP.2 (SARS-CoV-2)
[23] = target: SARS-CoV-2 spike (S) protein, variant CH.1.1 (SARS-CoV-2)
[24] = target: SARS-CoV-2 spike (S) protein, D614G (SARS-CoV-2) (UniProt P0DTC2)
[25] = target: SARS-CoV-2 spike (S) protein, variant JN.1 (SARS-CoV-2)
[26] = target: SARS-CoV-2 spike (S) protein, variant BA.2.86 (SARS-CoV-2)
[27] = target: SARS-CoV-2 spike (S) protein, variant KP.2.3 (SARS-CoV-2)
[28] = target: SARS-CoV-2 spike (S) protein, variant KP.3 (SARS-CoV-2)
[29] = target: SARS-CoV-2 spike (S) protein, variant KP.3.1.1 (SARS-CoV-2)
[30] = target: SARS-CoV-2 spike (S) protein, variant LB.1 (SARS-CoV-2)

Question: Which pseudotyped neutralization potency IC50 [1] does the source give for LY-CoV-1404 (antibody) here?
Answer: The pseudotyped neutralization potency IC50 was 0.0013 µg/mL.

Question: What about the pseudotyped neutralization potency IC80 [1] of the same substance?
Answer: The pseudotyped neutralization potency IC80 was 0.004 µg/mL.

Question: What about the pseudotyped neutralization potency IC50 [2] of the same substance?
Answer: Its pseudotyped neutralization potency IC50 is > 10 µg/mL.

Question: And the pseudotyped neutralization potency IC80 [2]?
Answer: Its pseudotyped neutralization potency IC80 is > 10 µg/mL.

Question: And the pseudotyped neutralization potency IC50 [3]?
Answer: The pseudotyped neutralization potency IC50 was 0.0004 µg/mL.

Question: What about the pseudotyped neutralization potency IC80 [3] of the same substance?
Answer: Its pseudotyped neutralization potency IC80 is 0.0014 µg/mL.

Question: And the pseudotyped neutralization potency IC50 [4]?
Answer: The pseudotyped neutralization potency IC50 was 0.002 µg/mL.

Question: And the pseudotyped neutralization potency IC80 [4]?
Answer: Its pseudotyped neutralization potency IC80 is 0.005 µg/mL.

Question: What about the pseudotyped neutralization potency IC50 [5] of the same substance?
Answer: The pseudotyped neutralization potency IC50 was > 10 µg/mL.

Question: And the pseudotyped neutralization potency IC80 [5]?
Answer: Its pseudotyped neutralization potency IC80 is > 10 µg/mL.

Question: What about the pseudotyped neutralization potency IC50 [6] of the same substance?
Answer: Its pseudotyped neutralization potency IC50 is 0.001 µg/mL.

Question: What about the pseudotyped neutralization potency IC80 [6] of the same substance?
Answer: Its pseudotyped neutralization potency IC80 is 0.005 µg/mL.

Question: What about the pseudotyped neutralization potency IC50 [7] of the same substance?
Answer: The pseudotyped neutralization potency IC50 was > 10 µg/mL.

Question: And the pseudotyped neutralization potency IC80 [7]?
Answer: The pseudotyped neutralization potency IC80 was > 10 µg/mL.

Question: What about the pseudotyped neutralization potency IC50 [8] of the same substance?
Answer: Its pseudotyped neutralization potency IC50 is 0.0014 µg/mL.

Question: And the pseudotyped neutralization potency IC80 [8]?
Answer: Its pseudotyped neutralization potency IC80 is 0.003 µg/mL.

Question: And the pseudotyped neutralization potency IC50 [9]?
Answer: Its pseudotyped neutralization potency IC50 is 0.003 µg/mL.

Question: And the pseudotyped neutralization potency IC80 [9]?
Answer: Its pseudotyped neutralization potency IC80 is 0.015 µg/mL.

Question: Which results are given for VYD222 (antibody)?
Answer: neutralizing activity IC50 (µg/ml (caption; values match nM)) [10]: 9.93; neutralizing activity IC80 (µg/ml (caption; values match nM)) [10]: 30.4; neutralizing activity IC50 (µg/ml (caption; values match nM)) [11]: 14.2; neutralizing activity IC80 (µg/ml (caption; values match nM)) [11]: 36.7; neutralizing activity IC50 (µg/ml (caption; values match nM)) [12]: > 67; neutralizing activity IC80 (µg/ml (caption; values match nM)) [12]: > 67; neutralizing activity IC50 (µg/ml (caption; values match nM)) [13]: 4.56; neutralizing activity IC80 (µg/ml (caption; values match nM)) [13]: 16.5; neutralizing activity IC50 (µg/ml (caption; values match nM)) [14]: 28.4; neutralizing activity IC80 (µg/ml (caption; values match nM)) [14]: 66.3; neutralizing activity IC50 (µg/ml (caption; values match nM)) [15]: 27.2; neutralizing activity IC80 (µg/ml (caption; values match nM)) [15]: > 67; neutralizing activity IC50 (µg/ml (caption; values match nM)) [16]: 8.83; neutralizing activity IC80 (µg/ml (caption; values match nM)) [16]: 39.5; neutralizing activity IC50 (µg/ml (caption; values match nM)) [17]: 4.71; neutralizing activity IC80 (µg/ml (caption; values match nM)) [17]: 15.6; neutralizing activity IC50 (µg/ml (caption; values match nM)) [18]: 6; neutralizing activity IC80 (µg/ml (caption; values match nM)) [18]: 20.9; neutralizing activity IC50 (µg/ml (caption; values match nM)) [19]: 30.8; neutralizing activity IC80 (µg/ml (caption; values match nM)) [19]: > 67; neutralization IC50 [20]: 0.899 µg/mL; neutralization IC50 [21]: > 10 µg/mL; neutralization IC50 [22]: 0.684 µg/mL; neutralization IC50 [23]: 1.49 µg/mL; neutralization IC50 [24]: 0.01 µg/mL; neutralization IC50 [25]: 0.706 µg/mL; neutralization IC50 [26]: 2.13 µg/mL; neutralization IC50 [27]: 4.25 µg/mL; neutralization IC50 [28]: 1.32 µg/mL; neutralization IC50 [29]: 4.05 µg/mL; neutralization IC50 [30]: 4.62 µg/mL
